The target of assay [1] is T1, MET-Fc (extracellular MET domain fused with human IgG1-Fc) (human, UniProt P08581 25-932).
T1 construct: extracellular domain; Recombinant chimera; also called recombinant extracellular MET-Fc chimera; hMET-Fc; not shown: human IgG1 Fc
Briefly: AlphaScreen saturation assay: K1B on streptavidin donor beads, MET-Fc on Protein A acceptor beads. How it is done:
(§1) FIG. 4. K1B and NB MET binding properties. (a) Structure of NK1 dimer (center, PDB 1BHT) and spatial relative orientation of each N (left) and K1 (right) monomers within the dimer. Dashed arrows indicate distances between subdomain C-termini. (b) NB, K1B and MET-Fc binding assay. Increasing concentrations of NB or K1B were mixed with extracellular MET domain fused with human IgG1-Fc (MET-Fc), and incubated with streptavidin AlphaScreen donor beads and Protein A acceptor beads. Error bars correspond to standard error (+/−SD) of triplicates. (c) Endogenous MET capture. Streptavidin coated beads loaded with NB or K1B were incubated with HeLa or Capan-1 total cell lysates. Input, flow-through and elution fractions from NB or K1 loaded beads were analyzed by specific total MET western blot.
(§2) The binding of K1B/S complexes to MET was examined using AlphaScreen technology. K1B was loaded on streptavidin-coated donor beads and incubated with recombinant extracellular MET-Fc chimera loaded on Protein A-coated acceptor beads. If K1B/S donor beads interact with MET-Fc/Protein A acceptor beads, a chemical energy transfer is possible between the beads, leading to fluorescence emission upon laser excitation. […]
Background: Alpha assays give light when donor and acceptor beads are brought close together.

The target of assay [2] is T1, MET-Fc (extracellular MET domain fused …). Briefly: AlphaScreen saturation assay: K1B on streptavidin-coated donor beads, MET-Fc on Protein A-coated acceptor beads (apparent, multivalent display); saturation assay; K1B on streptavidin-coated donor beads (apparent KD, avidity possible). As to the method:
as §1, §2

The target is the same in assay [3]. Briefly: AlphaScreen saturation assay; the reference is a literature value that is not given. As to the method:
as §1, with “Dashed” for “FIG. 4. K1B and NB MET binding properties. (a) Structure of NK1 dimer (center, PDB 1BHT) and spatial relative orientation of each N (left) and K1 (right) monomers within the dimer. Dashed”
The binding of K1B/S complexes to MET was examined using AlphaScreen technology. K1B was loaded on streptavidin-coated donor beads and incubated with recombinant extracellular MET-Fc chimera loaded on Protein A-coated acceptor beads. If K1B/S donor beads interact with MET-Fc/Protein A acceptor beads, a chemical energy transfer is possible between the beads, leading to fluorescence emission upon laser excitation. […] Since the bead-based AlphaScreen assay can generate avidity and thus introduce a bias in the estimation of the apparent KD in saturation experiments, it was performed the reciprocal competition assay by adding increasing concentrations of preformed K1B/S complex (2:1 molar ratio) into the K1B/MET-Fc/AlphaScreen bead mixture (FIG. 6). […]

The target is the same in assay [4]. Briefly: AlphaScreen saturation assay: NB on streptavidin donor beads, MET-Fc on Protein A acceptor beads. As to the method:
as §1, §2

Assay [5] deals with T2, endogenous MET receptor of human cells (HeLa, Capan-1) (human, UniProt P08581 25-1390).
T2 construct: whole, on cells; On living HeLa cells in the signalling assays; from whole cell lysates of HeLa or Capan-1 cells in the capture experiment; also called tyrosine kinase receptor MET
T2 sequence (P08581 25-1390): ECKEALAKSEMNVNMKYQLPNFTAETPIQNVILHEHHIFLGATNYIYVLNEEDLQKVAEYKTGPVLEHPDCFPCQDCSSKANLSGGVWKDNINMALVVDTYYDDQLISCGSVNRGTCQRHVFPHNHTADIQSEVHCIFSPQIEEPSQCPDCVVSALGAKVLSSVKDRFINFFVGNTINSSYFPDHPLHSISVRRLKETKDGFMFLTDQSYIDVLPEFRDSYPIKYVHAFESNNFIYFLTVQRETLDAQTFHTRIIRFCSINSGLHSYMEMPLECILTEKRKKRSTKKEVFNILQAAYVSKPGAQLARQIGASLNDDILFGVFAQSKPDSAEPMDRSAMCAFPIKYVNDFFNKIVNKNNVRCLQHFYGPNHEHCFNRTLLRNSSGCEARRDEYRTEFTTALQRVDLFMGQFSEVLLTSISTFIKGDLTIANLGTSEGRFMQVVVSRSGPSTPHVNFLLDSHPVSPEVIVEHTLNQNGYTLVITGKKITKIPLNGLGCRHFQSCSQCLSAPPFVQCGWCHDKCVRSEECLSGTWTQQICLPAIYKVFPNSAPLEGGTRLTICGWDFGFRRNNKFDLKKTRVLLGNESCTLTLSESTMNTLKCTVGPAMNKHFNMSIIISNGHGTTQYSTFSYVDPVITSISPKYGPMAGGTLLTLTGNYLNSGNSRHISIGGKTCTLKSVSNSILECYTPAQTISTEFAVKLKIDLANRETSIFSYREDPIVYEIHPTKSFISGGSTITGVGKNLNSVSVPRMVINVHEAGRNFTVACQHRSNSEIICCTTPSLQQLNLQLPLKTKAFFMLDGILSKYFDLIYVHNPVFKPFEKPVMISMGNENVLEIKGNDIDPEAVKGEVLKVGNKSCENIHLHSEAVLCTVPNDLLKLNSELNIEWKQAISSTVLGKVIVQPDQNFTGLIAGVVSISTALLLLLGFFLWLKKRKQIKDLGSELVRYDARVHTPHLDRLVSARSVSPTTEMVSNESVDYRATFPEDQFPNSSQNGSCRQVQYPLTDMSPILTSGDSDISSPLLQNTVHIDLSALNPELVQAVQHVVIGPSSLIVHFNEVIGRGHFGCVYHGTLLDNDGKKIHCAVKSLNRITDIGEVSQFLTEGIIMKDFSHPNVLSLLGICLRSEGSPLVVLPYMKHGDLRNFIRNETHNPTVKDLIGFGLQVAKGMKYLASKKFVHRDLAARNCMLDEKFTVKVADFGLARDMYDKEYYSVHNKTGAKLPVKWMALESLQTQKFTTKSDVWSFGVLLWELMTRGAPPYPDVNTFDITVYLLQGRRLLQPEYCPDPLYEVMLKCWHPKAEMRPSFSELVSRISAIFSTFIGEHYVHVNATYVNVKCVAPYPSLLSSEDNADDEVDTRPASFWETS
The assay is described as follows: pull-down of endogenous MET from HeLa and Capan-1 total cell lysates on streptavidin beads loaded with NB, total MET western blot. How it is done:
as §1
HeLa and Capan-1 cells were collected by scraping and then lysed on ice with a lysis buffer (20 mM Tris HCl, 50 mM NaCl, 5 mM EDTA and 1% Triton X-100). Lysates were clarified by centrifugation (20,000 g×15 min) and protein concentration was determined (BCA protein assay Kit, Pierce®, Thermo scientific, IL, USA). Streptavidin-Sepharose beads (GE Healthcare) were washed and equilibrated in PBS. Beads were loaded with 15 μg K1B or NB (100 μl beads in a 50:50 PBS:bead slurry) for 20 min at room temperature and immediately washed with PBS. […] Elution fractions were then analyzed by western blotting.
(In western blotting, separated proteins are transferred to a membrane and probed.)

T1 sequence (P08581 25-932): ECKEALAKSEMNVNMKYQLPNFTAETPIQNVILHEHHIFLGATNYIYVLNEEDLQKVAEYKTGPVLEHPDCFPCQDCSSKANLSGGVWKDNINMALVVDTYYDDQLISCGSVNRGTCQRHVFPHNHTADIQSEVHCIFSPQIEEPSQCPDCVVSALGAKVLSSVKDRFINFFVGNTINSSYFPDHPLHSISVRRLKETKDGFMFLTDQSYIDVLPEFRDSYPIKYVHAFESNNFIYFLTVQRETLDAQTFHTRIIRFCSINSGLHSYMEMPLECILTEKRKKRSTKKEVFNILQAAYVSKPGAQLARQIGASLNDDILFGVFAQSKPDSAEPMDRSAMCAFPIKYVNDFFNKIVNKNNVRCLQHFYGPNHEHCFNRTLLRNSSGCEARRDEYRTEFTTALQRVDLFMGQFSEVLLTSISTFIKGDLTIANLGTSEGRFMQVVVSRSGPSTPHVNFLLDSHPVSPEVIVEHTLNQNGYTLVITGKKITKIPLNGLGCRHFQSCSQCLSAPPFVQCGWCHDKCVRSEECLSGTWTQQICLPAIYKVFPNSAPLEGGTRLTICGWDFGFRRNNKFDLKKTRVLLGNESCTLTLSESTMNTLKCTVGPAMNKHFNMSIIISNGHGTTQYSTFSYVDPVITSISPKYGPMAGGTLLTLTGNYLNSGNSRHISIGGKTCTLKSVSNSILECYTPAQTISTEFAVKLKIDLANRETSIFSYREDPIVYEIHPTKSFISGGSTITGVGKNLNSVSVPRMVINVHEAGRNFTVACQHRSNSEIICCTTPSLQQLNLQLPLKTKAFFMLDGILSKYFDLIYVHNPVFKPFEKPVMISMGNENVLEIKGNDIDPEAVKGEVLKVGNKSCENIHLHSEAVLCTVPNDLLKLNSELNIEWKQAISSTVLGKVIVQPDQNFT

B1: K1B (biotinylated K1 domain of HGF/SF, residues 125-209 with C-terminal GGK(biotin) extension) (ligand)
chain: IRNCIIGKGRSYKGTVSITKSGIKCQPWSSMIPHEHSFLPSSYRGKDLQENYCRNPRGEEGGPWCFTSNPEVRYEVCDIPQCSEVGGK
modifications: C-terminal lysine of the GGK extension modified on its side chain with a biotin group; three native disulfide bonds
notes: also called K1-Biot; biotinylated version of the K1 domain
Take B1: in assay [1], the “EC50 (read off the curve)” value is about 20 nM. In addition, the Kd in assay [2] was about 16 nM. Moreover, in assay [3], the “fold lower apparent KD than the KD reported for monomeric K1 protein-MET interaction” value is about 100 fold.

B2: NB (ligand, human, UniProt P14210 31-127, looked up)
single chain: GQRKRRNTIHEFKKSAKTTLIKIDPALKIKTKKVNTADQCANRCTRNKGLPFTCKAFVFDKARKQCLWFPFNSMSSGVKKEFGHEFDLYENKDYIRN
modifications: biotinylated; the site is not stated for NB
notes: isolated N domain, chemically synthesised and biotinylated, not pre-mixed with soluble streptavidin; It is distinct from m9, the NB/S complex pre-mixed 2:1 with streptavidin; In both assays NB is presented on streptavidin-coated beads; also called biotinylated N domain of HGF/SF
Consider B2, for which the binding result in assay [4] was “no binding (tested: 300 nM)”; in assay [5] it was “no binding”.

What is called EC50 (read off the curve) is the concentration giving half of the maximal effect.

(Values after patent publication US20180008723A1 (UNIVERSITE DES SCIENCES ET TECHNOLOGIES DE LILLE LILLE 1, published 2018).)
